Biological target: CapAB(K55M), inactive P-loop mutant of the CapAB chimeric protein, unphosphorylated (Staphylococcus aureus)
Assay: crystal structure; CapAB(K55M) at 8.5 mg/ml with 10 mM MgCl2, 20% (v/v) PEG 1000, 200 mM glycine, 0.1 M Na-Hepes pH 7.5, 18 °C; 2.6 Å

CapAB(K55M), inactive P-loop mutant of the CapAB chimeric protein, unphosphorylated
stoichiometry N: 8
